Data as given in publication PMC8239432, “Cross-Reactive SARS-CoV-2 Neutralizing Antibodies From Deep Mining of Early Patient Responses” (Frontiers in Immunology, 2021).

How the values were obtained:
Conditions in all cases: both partners purified
[1] = biological target: T1, SARS-CoV-2 RBD-rCD4-Avi-His (SARS-CoV-2 (reference sequence), UniProt P0DTC2); assay: SPR
T1 construct: also called RBD-rCD4-His

[2] = biological target: T2, SARS CoV-2 RBD (Acro BioSystems, SPDC52H3) (SARS-CoV-2 (reference sequence), UniProt P0DTC2); assay: BLI
T2 construct: source: bought: Acro BioSystems

[3] = biological target: T3, MERS-CoV S1 with a His tag (MERS-CoV, isolate EMC/2012 (from …, UniProt K0BRG7)); assay: binding assay based on time resolved fluorescence (TRF)
T3 construct: source: bought: Sino Biological

[4] = biological target: T4, SARS-CoV-1 RBD (SARS-CoV-1 (SARS-CoV); isolate not …, UniProt P59594); assay: as above
T4 construct: also called RBD subdomain of the SARS-CoV-1 spike protein; source: Expi293F, purified (Nickel-NTA agarose)

[5] = biological target: T5, SARS-CoV-2 RBD-rCD4-Avi-His (SARS-CoV-2, UniProt P0DTC2); assay: SPR
T5 construct: also called RBD-rCD4-His; monomeric RBD; source: Expi293F, purified (Nickel-NTA agarose)

B1: ION_300 IgG1 (antibody, V domains shown)
VH: QVQLVQSGAEVKKPGESLKISCKGSGYSFTSYWIGWVRQMPGKGLEWMGIIYPGDSDTRYSPSFQGQVTISADKSISTAYLQWSSLKASDTAMYYCARHPSPYYYGSGSYSGGFDYWGQGTLVTVSS
VL: DIVMTQSPGTLSLSPGERATLSCRASQSVSSSYLAWYQQKPGQAPRLLIYGASTRATGIPARFSGSGSGTEFTLTISSLQSEDFAVYYCQQYDNWPLMHTFGQGTKLEIK
notes: source: ExpiCHO or Expi293, purified (protein A, SEC)
- Kd [1]: 3.4 nM
- koff [1]: 0.000775 s⁻¹
- kon [1]: 252000 M⁻¹ s⁻¹

B2: ION_300 IgG1 (antibody, V domains shown)
VH: B1 VH
VL: B1 VL
- binding result [2]: binds
- binding result [3]: no binding
- binding result [4]: binds

B3: ION_360 IgG1 (antibody, V domains shown)
VH: EVQLVQSGGGLVKPGGSLRLSCAASGITVSSNYMSWVRQAPGKGLEWVSVIYSGGSTYYADSVKGRFTISRDNSKNTLYLQMNSLRAEDTAVYYCARGEGGSIVGVTSDYWGQGTLVTVSS
VL: DIQMTQSPSSLSASVGDRVTITCRASQSISRYLNWYQQKPGKAPKLLIYAASSLQSGVPSRFSGSGSETEFTLTISSLHPDDFATYYCQQSYSTLPYTFGQGTKVEIK
notes: as for B1
- koff [1]: 0.000279 s⁻¹
- kon [1]: 188000 M⁻¹ s⁻¹

B4: ION_360 IgG1 (antibody, V domains shown)
VH: B3 VH
VL: B3 VL
- Kd [5]: 1.5 nM
